The text below walks through data of US20150160235A1 (Takeda / Millennium, published 2015).

The assay has as its target T1, oxMIF (oxidized macrophage migration inhibitory factor) in human tissue cryosections (human, UniProt P14174 2-115).
T1 construct: mature; Native oxMIF isoform in unfixed, air-dried cryosections of patient tissue (kidney, pancreas, breast, brain, lung, colon); also called oxidized MIF
The assay can be described thus: IHC, biotinylated RAM9 5 µg/ml on unfixed kidney cryosections, streptavidin-HRP/DAB. On the procedure: The kidney tissue slides were prepared according to state of the art techniques known to experts, either fresh frozen or OCT embedded, sectioned at 10 μm and stored at <=−80° C. after sectioning. All following steps were done at ambient temperature. The cryo-sections were air dried for 30 min and unspecific binding was blocked with blocking buffer (20% Normal Goat Serum/2% Bovine Serum Albumin/0.2% Fish Gelatine in TBS) for 30 min. The sections were then incubated with a primary, preferably biotinylated, anti-oxMIF Antibody (biotinylated-RAM9) in primary antibody dilution buffer (2% Bovine Serum Albumin/0.2% Fish Gelatine in TBS) at a concentration of 5 μg/ml for 60 min. After washing in TBS, the specimen was fixed in 4% PBS buffered formaldehyde for 15-20 min. Excess formaldehyde was removed by washing in TBS for 10 min. The staining was done using VECTASTAIN Elite ABC Reagent (HRP conjugated Streptavidin) for 30 min. Then the sections were extensively washed again 10 min in TBS. By using ImmPACT DAB Substrate for 10 minutes the staining was visualized as a brown color, which is reflected in FIG. 1A by a dark grey. The slides were washed in TBS and the nuclei were counterstained with Haematoxylin for 1-2 min. By washing the slides in tap water the color of the counter stain changes from violet to blue. […]

T1 sequence (P14174 2-115): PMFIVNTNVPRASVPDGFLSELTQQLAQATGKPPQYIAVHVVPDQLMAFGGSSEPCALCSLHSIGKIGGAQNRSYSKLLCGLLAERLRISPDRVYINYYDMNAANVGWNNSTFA

B1: anti-oxMIF antibody RAM9 (antibody, V domains shown)
VH: EVQLLESGGGLVQPGGSLRLSCAASGFTFSIYSMNWVRQAPGKGLEWVSSIGSSGGTTYYADSVKGRFTISRDNSKNTLYLQMNSLRAEDTAVYYCAGSQWLYGMDVWGQGTTVTVSS
VL: DIQMTQSPSSLSASVGDRVTITCRSSQRIMTYLNWYQQKPGKAPKLLIFVASHSQSGVPSRFRGSGSETDFTLTISGLQPEDSATYYCQQSFWTPLTFGGGTKVEIKR
notes: also called biotinylated-RAM9
As for B1, the binding result is given as “binds”.
